B1: N166A: PH20sHis N-glycosylation site mutant N166A, SEQ ID NO:203 (protein)
chain: MGVLKFKHIFFRSFVKSSGVSQIVFTFLLIPCCLTLNFRAPPVIPNVPFLWAWNAPSEFCLGKFDEPLDMSLFSFIGSPRINATGQGVTIFYVDRLGYYPYIDSITGVTVNGGIPQKISLQDHLDKAKKDITFYMPVDNLGMAVIDWEEWRPTWARNWKPKDVYKARSIELVQQQNVQLSLTEATEKAKQEFEKAGKDFLVETIKLGKLLRPNHLWGYYLFPDCYNHHYKKPGYNGSCFNVEIKRNDDLSWLWNESTALYPSIYLNTQQSPVAATLYVRNRVREAIRVSKIPDAKSPLPVFAYTRIVFTDQVLKFLSQDELVYTFGETVALGASGIVIWGTLSIMRSMKSCLLLDNYMETILNPYIINVTLAAKMCSQVLCQEQGVCIRKNWNSSDYLHLNPDNFAIQLEKGGKFTVRGKPTLEDLEQFSEKFYCSCYSTLSCKEKADVKDTDAVDVCIADGVCIDAFLKPPMETEEPQIFYNASPSTLSHHHHHH
modifications: His tag; PH20sHis N166A
B2: SPAM1-ILFL: C-terminally truncated human PH20, precursor 501 aa (SEQ ID NO:6), mature 466 aa (SEQ ID NO:58) (protein, listed as Homo sapiens)
chain 1: MGVLKFKHIFFRSFVKSSGVSQIVFTFLLIPCCLTLNFRAPPVIPNVPFLWAWNAPSEFCLGKFDEPLDMSLFSFIGSPRINATGQGVTIFYVDRLGYYPYIDSITGVTVNGGIPQKISLQDHLDKAKKDITFYMPVDNLGMAVIDWEEWRPTWARNWKPKDVYKNRSIELVQQQNVQLSLTEATEKAKQEFEKAGKDFLVETIKLGKLLRPNHLWGYYLFPDCYNHHYKKPGYNGSCFNVEIKRNDDLSWLWNESTALYPSIYLNTQQSPVAATLYVRNRVREAIRVSKIPDAKSPLPVFAYTRIVFTDQVLKFLSQDELVYTFGETVALGASGIVIWGTLSIMRSMKSCLLLDNYMETILNPYIINVTLAAKMCSQVLCQEQGVCIRKNWNSSDYLHLNPDNFAIQLEKGGKFTVRGKPTLEDLEQFSEKFYCSCYSTLSCKEKADVKDTDAVDVCIADGVCIDAFLKPPMETEEPQIFYNASPSTLSATMFIVSILFL
chain 2: LNFRAPPVIPNVPFLWAWNAPSEFCLGKFDEPLDMSLFSFIGSPRINATGQGVTIFYVDRLGYYPYIDSITGVTVNGGIPQKISLQDHLDKAKKDITFYMPVDNLGMAVIDWEEWRPTWARNWKPKDVYKNRSIELVQQQNVQLSLTEATEKAKQEFEKAGKDFLVETIKLGKLLRPNHLWGYYLFPDCYNHHYKKPGYNGSCFNVEIKRNDDLSWLWNESTALYPSIYLNTQQSPVAATLYVRNRVREAIRVSKIPDAKSPLPVFAYTRIVFTDQVLKFLSQDELVYTFGETVALGASGIVIWGTLSIMRSMKSCLLLDNYMETILNPYIINVTLAAKMCSQVLCQEQGVCIRKNWNSSDYLHLNPDNFAIQLEKGGKFTVRGKPTLEDLEQFSEKFYCSCYSTLSCKEKADVKDTDAVDVCIADGVCIDAFLKPPMETEEPQIFYNASPSTLSATMFIVSILFL
modifications: HuPH20 precursor 1-501; mature HuPH20 36-501
B3: SPAM1-LFLI: C-terminally truncated human PH20, precursor 502 aa (SEQ ID NO:47), mature 467 aa (SEQ ID NO:99) (protein, listed as Homo sapiens)
chain 1: MGVLKFKHIFFRSFVKSSGVSQIVFTFLLIPCCLTLNFRAPPVIPNVPFLWAWNAPSEFCLGKFDEPLDMSLFSFIGSPRINATGQGVTIFYVDRLGYYPYIDSITGVTVNGGIPQKISLQDHLDKAKKDITFYMPVDNLGMAVIDWEEWRPTWARNWKPKDVYKNRSIELVQQQNVQLSLTEATEKAKQEFEKAGKDFLVETIKLGKLLRPNHLWGYYLFPDCYNHHYKKPGYNGSCFNVEIKRNDDLSWLWNESTALYPSIYLNTQQSPVAATLYVRNRVREAIRVSKIPDAKSPLPVFAYTRIVFTDQVLKFLSQDELVYTFGETVALGASGIVIWGTLSIMRSMKSCLLLDNYMETILNPYIINVTLAAKMCSQVLCQEQGVCIRKNWNSSDYLHLNPDNFAIQLEKGGKFTVRGKPTLEDLEQFSEKFYCSCYSTLSCKEKADVKDTDAVDVCIADGVCIDAFLKPPMETEEPQIFYNASPSTLSATMFIVSILFLI
chain 2: LNFRAPPVIPNVPFLWAWNAPSEFCLGKFDEPLDMSLFSFIGSPRINATGQGVTIFYVDRLGYYPYIDSITGVTVNGGIPQKISLQDHLDKAKKDITFYMPVDNLGMAVIDWEEWRPTWARNWKPKDVYKNRSIELVQQQNVQLSLTEATEKAKQEFEKAGKDFLVETIKLGKLLRPNHLWGYYLFPDCYNHHYKKPGYNGSCFNVEIKRNDDLSWLWNESTALYPSIYLNTQQSPVAATLYVRNRVREAIRVSKIPDAKSPLPVFAYTRIVFTDQVLKFLSQDELVYTFGETVALGASGIVIWGTLSIMRSMKSCLLLDNYMETILNPYIINVTLAAKMCSQVLCQEQGVCIRKNWNSSDYLHLNPDNFAIQLEKGGKFTVRGKPTLEDLEQFSEKFYCSCYSTLSCKEKADVKDTDAVDVCIADGVCIDAFLKPPMETEEPQIFYNASPSTLSATMFIVSILFLI
modifications: HuPH20 precursor 1-502; Mature HuPH20 36-502
B4: SPAM1-SSVA: C-terminally truncated human PH20, precursor 507 aa (SEQ ID NO:3), mature 472 aa (SEQ ID NO:55) (protein, listed as Homo sapiens)
chain 1: MGVLKFKHIFFRSFVKSSGVSQIVFTFLLIPCCLTLNFRAPPVIPNVPFLWAWNAPSEFCLGKFDEPLDMSLFSFIGSPRINATGQGVTIFYVDRLGYYPYIDSITGVTVNGGIPQKISLQDHLDKAKKDITFYMPVDNLGMAVIDWEEWRPTWARNWKPKDVYKNRSIELVQQQNVQLSLTEATEKAKQEFEKAGKDFLVETIKLGKLLRPNHLWGYYLFPDCYNHHYKKPGYNGSCFNVEIKRNDDLSWLWNESTALYPSIYLNTQQSPVAATLYVRNRVREAIRVSKIPDAKSPLPVFAYTRIVFTDQVLKFLSQDELVYTFGETVALGASGIVIWGTLSIMRSMKSCLLLDNYMETILNPYIINVTLAAKMCSQVLCQEQGVCIRKNWNSSDYLHLNPDNFAIQLEKGGKFTVRGKPTLEDLEQFSEKFYCSCYSTLSCKEKADVKDTDAVDVCIADGVCIDAFLKPPMETEEPQIFYNASPSTLSATMFIVSILFLIISSVA
chain 2: LNFRAPPVIPNVPFLWAWNAPSEFCLGKFDEPLDMSLFSFIGSPRINATGQGVTIFYVDRLGYYPYIDSITGVTVNGGIPQKISLQDHLDKAKKDITFYMPVDNLGMAVIDWEEWRPTWARNWKPKDVYKNRSIELVQQQNVQLSLTEATEKAKQEFEKAGKDFLVETIKLGKLLRPNHLWGYYLFPDCYNHHYKKPGYNGSCFNVEIKRNDDLSWLWNESTALYPSIYLNTQQSPVAATLYVRNRVREAIRVSKIPDAKSPLPVFAYTRIVFTDQVLKFLSQDELVYTFGETVALGASGIVIWGTLSIMRSMKSCLLLDNYMETILNPYIINVTLAAKMCSQVLCQEQGVCIRKNWNSSDYLHLNPDNFAIQLEKGGKFTVRGKPTLEDLEQFSEKFYCSCYSTLSCKEKADVKDTDAVDVCIADGVCIDAFLKPPMETEEPQIFYNASPSTLSATMFIVSILFLIISSVA
modifications: HuPH20 precursor 1-507; mature HuPH20 36-507

Key:
[1] = Hyaluronidase activity of N-glycan site specific deglycosylation mutants (biotinylated-HA assay); type: biochemical; settings: media of transfected CHO-S cells
Method: In short, a 4×BH 96-well plate was coated with biotinylated-HA (1.1 MDa). The 72 hour post transfection supernatant from cells transfected with human PH20 hyaluronidase carboxy-terminus deletion mutants was diluted in buffer at either pH 7.4 or pH 5.5 and added to individual wells of the plate and allowed to incubate at 37° C. for 90 minutes. The reaction was terminated by addition of 4M guanidine HCl. The wells were washed 4× with Phosphate Buffered Saline with Tween20 (PBST) to remove any digested biotinylated-HA followed by addition of streptavidin-HRP for 1 hour at room temperature. The wells were washed 4× with PBST and the plate was developed with TMB. The plate was read at 450 nm using an ELISA plate reader. Hyaluronidase activity (in Units/mL) was determined by interpolating the measured absorbance at 450 nm with a hyaluronidase reference standard curve. Full length mature human PH20 hyaluronidase and untransfected CHO cells were used as positive and negative controls.
PH20sHis (SEQ ID NO:210) was used as a template for mutagenesis of each asparagine residue to alanine using QuikChange® Site-Directed Mutagenesis Kit (Cat No. 200518, Stratagene). […] Six single mutants were generated, one for each of the N-glycosylation sites. Additionally, three double mutants and a triple mutant were generated for asparagines N82, N166 and N254, all of which are occupied by complex type glycans. Finally, a double mutant N368A/N393A was generated, lacking high mannose glycans. The mutants were transfected into CHO—S cells and expression was performed as described in Example 2A. Secretion into the media and hyaluronidase activity were determined as described in Examples 3 and 5, above.

[2] = system: CHO-S cells; assay: PI-PLC treatment of expressing cells, Western blot of media and cells; type: cell-based, Chinese Hamster; settings: cells incubated with PI-PLC for 2 hours
Method: In this example, following transient expression, as described in Example 2 above, the media and cells were harvested separately and analyzed for PH20 expression and solublility by Western blot analysis. Solubility of the C-terminus truncation mutants was determined by examining whether the expressed protein was present in the growth media or in the cells. […] Cells expressing these mutants were treated with phosphoinositol-phospholipase C (PI-PLC), which cleaves the GPI-anchor allowing the release of soluble protein into the media, and the presence of PH20 in the resulting media and cells was determined by Western blot analysis.
Following expression of rHuPH20 in CHO—S cells for 72 hours, as described in Example 2A above, the media and cells were harvested separately. The cells were washed with serum-free media followed by the addition of 2 mL serum-free media per well. PI-PLC (0.5 units/well) was added to each well and the cells were incubated in the PI-PLC for 2 hours. The resultant media and cells were analyzed by Western blot analysis as described above.
Two plates each of rHuPH20 expressing CHO—S cells, one for treatment with PI-PLC and one without treatment with PI-PLC, were prepared for each C-terminus mutant as described in Example 2B above. Following expression for 48 hours, for cells untreated with PI-PLC, the media and cells were harvested separately. The harvested media was spun down, concentrated to a volume of 10 mL, and buffer exchanged into PBS using an Amicon 30 kD MWCO concentrator. The cells were rinsed with cold PBS and scraped and resuspended in 1.2 mL PBS with protease inhibitor Set III (Cat No. 539134, Calbiochem). The resuspended cells were briefly sonicated to prepare whole-cell extract. For PI-PLC treatment of cells, following expression for 48 hours, the untreated media was harvested, as described above. The cells were rinsed once with fresh CD DG44 medium with Glutamax-1, and the media was replaced with 12 mL fresh detergent free CD DG44 medium supplemented with Glutamax-1 with 3.0 units PI-PLC per dish, and the cells were incubated for 2 hours at 37° C. with 5% CO2. After 2 hours, the PI-PLC media and cells were harvested separately, as described above. The resultant untreated media and cells, and PI-PLC treated media and cells, were analyzed by Western blot analysis as described above.

[3] = Microtiter hyaluronidase activity assay with biotinylated-hyaluronic acid; type: biochemical; settings: for pH 5.5 Activity / pH 7.4 Activity: 72 hour post transfection supernatant; for Hyaluronidase activity (in words): pH 7.4 and pH 5.5

Row | Molecule | Activity pH 5.5 ([1]; pH 5.5) | Activity pH 7.4 ([1]; pH 7.4) | Expressed in Media Following Addition of PI-PLC [2] | pH 5.5 Activity ([3]; Table 6) | pH 7.4 Activity ([3]; Table 6) | pH 5.5 Activity ([3]; Table 6A) | pH 7.4 Activity ([3]; Table 6A) | Hyaluronidase activity (in words) [3]
1 | B1 | YES | YES |  |  |  |  |  | 
2 | B2 |  |  | YES | 0.0405 Units/ml | 0.0405 Units/ml | 0.122 Units/ml | 0.446 Units/ml | little detectable activity
3 | B3 |  |  | YES |  |  | 0.324 Units/ml | 0.608 Units/ml | little detectable activity
4 | B4 |  |  | YES | 1.125 Units/ml | 1.4715 Units/ml | 1.256 Units/ml | 1.782 Units/ml | 
